Results on four molecules are retold here after patent publication US20170260530, “APTAMERS FOR PURIFYING AND QUANTIFYING GELSOLIN AND ITS VARIANTS” (Council of Scientific & Industrial Research, published 2017).

As usually defined, the Kd is the concentration at which binding is half-saturated. Lower therefore signals tighter binding.

Data set [1] has as its target T1, Gelsolin (GSN) (Homo sapiens, UniProt P06396 SEQ:28-782). The data set is described as follows: microtiter (ELISA-type) assay, immobilized aptamer, 100 nM gelsolin; selection buffer with 2 mM CaCl2, 5 mM MgCl2; RT. As to conditions: tags: tagless; expressed from pET303/CT-His vector in E. coli BL21(DE3); label: biotin. In general terms: ELISA stands for enzyme-linked immunosorbent assay.

In data set [2] the target is T1, Gelsolin (GSN). The data set is described as follows: microtiter (ELISA-type) assay, immobilized aptamer 1.56-100 nM, 100 nM gelsolin; 25 mM Tris pH 8, 150 mM NaCl, 2 mM CaCl2, 5 mM MgCl2, 10 mM KCl; RT. To be noted: tags: tagless; expressed from pET303/CT-His vector in E. coli BL21(DE3); label: biotin.

T1 sequence (P06396 28-782): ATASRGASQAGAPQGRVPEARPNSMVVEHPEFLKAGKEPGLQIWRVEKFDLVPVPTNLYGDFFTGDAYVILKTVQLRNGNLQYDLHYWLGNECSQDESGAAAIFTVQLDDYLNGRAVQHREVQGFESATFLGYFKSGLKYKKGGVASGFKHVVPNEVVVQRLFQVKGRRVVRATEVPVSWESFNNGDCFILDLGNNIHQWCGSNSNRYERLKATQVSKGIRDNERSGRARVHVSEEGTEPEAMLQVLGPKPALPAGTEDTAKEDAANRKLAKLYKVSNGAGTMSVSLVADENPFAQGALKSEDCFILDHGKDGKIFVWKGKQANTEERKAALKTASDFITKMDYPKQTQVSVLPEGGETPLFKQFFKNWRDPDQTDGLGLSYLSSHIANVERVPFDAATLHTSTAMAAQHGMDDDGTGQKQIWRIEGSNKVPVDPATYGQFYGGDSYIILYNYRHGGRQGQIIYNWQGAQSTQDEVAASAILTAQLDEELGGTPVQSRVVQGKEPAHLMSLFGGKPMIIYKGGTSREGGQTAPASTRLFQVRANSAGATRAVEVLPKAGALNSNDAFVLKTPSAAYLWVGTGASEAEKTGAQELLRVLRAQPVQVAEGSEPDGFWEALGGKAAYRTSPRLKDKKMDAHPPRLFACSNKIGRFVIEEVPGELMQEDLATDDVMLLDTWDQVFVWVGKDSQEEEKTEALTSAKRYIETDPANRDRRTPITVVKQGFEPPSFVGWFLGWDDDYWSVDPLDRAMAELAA

B1: L16F (ssDNA)
DNA: TAGGGAAGAGAAGGACATATGATAGGGGGATAGGAGGGGGTGGGATTGGGGGATTGACTAGTACATGACCACTTGA
In the data set with Gelsolin (GSN) [1], B1 returned a Kd of 12.7 nM.

B2: 10.10R (ssDNA)
DNA: TCAAGTGGTCATGTACTAGTCAAGCACTTTCGCTGCTCGCTGGCGCCGCGCCCATCATATGTCCTTCTCTTCCCTA
Molecule B2 came in with a dissociation constant Kd with Gelsolin (GSN) [2] of 7.2 nM.

B3: L26F (ssDNA)
DNA: TAGGGAAGAGAAGGACATATGATGGGGCACTGGAGGGTGGGGGAGCGGGGGCGGTTGACTAGTACATGACCACTTGA
For the molecule B3, binding with Gelsolin (GSN) [1] was put at a Kd of 15.3 nM.

B4: L24F (ssDNA)
DNA: TAGGGAAGAGAAGGACATATGATCGGGGGGCGGGTATTGGGGGCCGGGGGGATTGACTAGTACATGACCACTTGA
In the data set with Gelsolin (GSN) [1], B4 had a Kd of 15.7 nM.
